Experimental data taken from paper PMC8967717 (Nature, 2022).

B1: XGv261 (antibody, V domains shown)
VH: QLQLQESGPGLVRPSETLSLTCTVSGGSITDSGYYWGWIRQPPGKGLEWIGNIFYSGSTYYNPSLKSRVTISVDTSKNQFSLRLSSVTAADTAVYYCAREIGIIDYWGQGSLVIVSS
VL: DIQMTQSPSSLSASVGDRVTITCRASQGISNSLAWYQQKPGKAPKLLLYGASTLESGVPSRFSGSGSGTHFTLTISSLQPEDFATYFCQQYYSSPPRTFGGGTKVEI
B2: XGv177 (antibody, V domains shown)
VH: EVQLVESGGGLIQPGGSLRLSCAASGVTVSSNYMTWVRQAPGKGLDWVSVIYSGGSTFYADSVKGRFTISRDNSKNTLYLQMNSLRVEDTAVYYCARDLVDYGLDVWGQGTTVTVSS
VL: DIQLTQSPSFLSASVGDRVTITCRASQGIASYLAWYQQKPGKPPKLLIYAASTLQSGVPTRFSGSGSGTEFTLTITSLQPEDFATYYCQLLSRHPPTFGGGTKVEI
B3: XGV016 (antibody, V domains shown)
VH: QVQLVQSGTEVRKPGASVTVSCKASGYTFTTYHMHWVRRAPGQGLEWMGIIDPGTGGASYPQKFRGRVTLTRDTSTNTVYMELSSLRFQDTAIYYCARAEGSSWLGWFDPWGQGTLVTVSS
VL: QSVLTQPPSASGTPGQRVSISCSGSSSNIGTNYVYWYQQLPGTAPKLLIYKNNQRPSGVPDRFSGSKSGTSASLAISGLRSEDEADYFCASWDNGLSGSGWVFGGGTKLTV
B4: XGV026 (antibody, V domains shown)
VH: EVQLVESGGGVIQPGGSLRLSCAASEIIVSSNYMNWVRQAPGKGLEWVSVIYPGGSSFYADSVKGRFTISRDNSKNTLYLQMNSLRVEDTAVYYCARDSPHRPGTIWGQGTLVVVSS
VL: DIQMTQSPSSLSASVGDRVTITCRASQDINNYLNWYQQKPGKAPKLLIYDAFTLEAGVPSRFSGARFGTDFTFTISSLQPEDIATYYCHQCDNLPCTFGGGTKVEIK
B5: XGV017 (antibody, V domains shown)
VH: EVQLVESGGGLIQPGGSLRLSCAASGVTVSSNYMNWVRQAPGKGLEWVSVIYPGGTRDYSDSVKGRFTISRDSSKNTLYLQMNSLRDEDTAFYYCARDLVVYGMDVWGQGTTVTVTS
VL: DIQLTQSPSSLSASVGDRVTITCRASQGISSYLAWYQQKPGKAPKLLIYAASTLQSGVPSRFSGSGSGTDFTLTISSLQPEDFAAYYCQLLNTYPLTFGGGTKVEIK
B6: XGv264 (antibody, V domains shown)
VH: QITLKESGPTLVKPTQTLTLTCAFSGFSLNTGGAGVGWIRQPPGKALEWLALIYWDGDKRYNPSLKSRLAIIMDTSKNRVVLTMTNMDPVDTATYYCAHHKIEYIFDYWGQGTLVAVSS
VL: QSALTQPASVSGSPGQSITVSCTGTSSDLGNFQYVSWYQHHPGKAPKLLIYEVSHRPSGVSNRFSGSKSGNTASLTISGLQAEDEADYYCCSYTTTTIPVAFGGGTRLTVL
B7: XGV031 (antibody, V domains shown)
VH: QVQLVQSGAEVKKPGSSVKVSCKASGGTFSNYALSWVRQAPGQGLEWMGGIIPIFGTTNYAQNFQGRVTITADESTSTAYMELSSLRSEDTAVYYCARLDGYSFGHNRYYQDGMDDWGQGTTVTVSS
VL: DIQMTQSPSSLSASVGDRVTITCRASQAIRSDLGWYQQKPGKAPKCLIYAASTLQSGVPSRFSGSGSGTEFTLTISSLQPEDFATYYCLQQNIYPRTFGQGTKVEI
B8: XGv051 (antibody, V domains shown)
VH: QVQLVQSGAEVKKPGSSVKVSCKASGGTFSNYALSWVRQAPGQGLEWMGGIIPIFGTTNYAQKFQGRVTITADESTSTAYMELSSLRSEDTAVYYCARLDGYSFGHDRYYQDGMDDWGPGTTVTVSS
VL: DIQMTQSPSSLSASVGDRVTITCRASQAIRNDLGWYQQKPGKAPKCLIYAASTLQSGVPSRFSGSGSGTEFTLTISSLQPEDFATYFCLQQNIYPRTFGQGTKVEI
B9: XGv055 (antibody, V domains shown)
VH: QVQLVQSGAEVKKPGSSVKVSCKASGGTFSSYALSWVRQAPGQGLEWMGGIIPIFGTTNYAQKFQGRVTITADESSSTAYMELSSLRSEDTAVYYCARLDGYSFGHNRYYQDGMDDWGQGTTVTVSS
VL: DIQMTQSPSSLSASVGDRVTITCRASQGIRNDLGWYQQKPGKAPKCLIYAASTLQSGVPSRFSGSGSGTEFTLTISSLQPEDFATYYCLQQNIYPRTFGQGTKVEIK
B10: XGv053 (antibody, V domains shown)
VH: QVQLVQSGAEVKKPGSSVKVSCKASGGTFSSYALTWVRQAPGQGLEWMGGIIPIFGTTNYAQKFQGRVTITADESTSTAYMELTSLRSEDTAVYYCARLDGYSFGHNRYYQDGMDDWGQGTTVTVSS
VL: DIQMTQSPSSLSASVGDRVTITCRASQDIRNDLGWYQQKPGKAPKCLIYAASTLQSGVPSRFSGSGSGTEFTLTISSLQPEDFATYYCLQQNIYPRTFGQGTKVEIK
B11: XGv074 (antibody, V domains shown)
VH: EVQLVESGGGLIQPGGSLRLSCAASGITVSANYMSWVRQAPGKGLEWVSVIYSGGSTYYADSVKGRFTISRDHSKNTLYLQMKNLRAEDTAVYYCARDRGSSGYLGDQPYEYWGQGTLVTVSS
VL: DIQMTQSPSSLSASVGDRVTITCQASQDINKYLNWYQQKPGKAPKLLIYGASNLETGVPSRFSGSGSGTDFTFTISSLRPEDIATYYCQQYDPLPVTFGGGTRVEIK
B12: XGV042 (antibody, V domains shown)
VH: QITLKESGPTLVKPTQTLTLTCTFSGLSMTTSGVGVGWIRQPPGKALEWLALIYWDDDKRYSPFLKSRLTITKDTSKNQVVLTMTNMDPADTGTYFCAHHTIPSIFDHWGQGTLVTVSS
VL: QSALTQPASVSGSPGQSITISCTATSSDVGVYNYVSWYQQYPGKAPRLIIFEVSNRPSGVSSRFSGSKSGYTASLTISGLQTDDEADYYCSSYTTTSTVFGGGTKLTVL
B13: XGV050 (antibody, V domains shown)
VH: EVQLVESGGGLVQPGGSLRLSCAASGFTFSRYDMHWVRQAAGKGLEWVSGIGAPGDTYYAGSVKGRFTISRENAKTSLHLQMNNLRAGDTAVYYCTRGWFGENYMDVWGKGTTVTVSS
VL: EIVLTQSPATLSLSPGERATLSCRASQSVSNHLAWFQQKPGQSPRLLIYDASNRATGIPARFSGSGSGTDFTLTISSLEPEDFAIYYCHQRSNWPTFGQGTKVEIK
B14: XGv266 (antibody, V domains shown)
VH: QITLKESGPTLVRPTQTLTLTCTFSGLSLSAPAEGVGWIRQPPGKALEWLALIYWEGDQRYSPSLKSRLTITKDTSKKQVVLTMTNMDPVDTATYYCARHSVATIFDFWGQGTLVTVSS
VL: QSALTQPASVSGSPGQSITISCTGTSSDVGCCNYVSWYQHHPGKAPKLMIYEVTNRPSGISDRFSGSKSGNTASLTISGLQAEDEAAYYCSSYTTSTARVVFGGGTKLTVL

Columns and labels:
[1] = target: SARS-CoV-2 wild-type spike receptor-binding domain (SARS-CoV-2, WT (MN908947), UniProt P0DTC2)
[2] = target: SARS-CoV-2 wild-type spike (S) protein (SARS-CoV-2, WT (MN908947), UniProt P0DTC2)

Binder | binding result [1] | binding result [2]
B1 | binds | binds
B2 | binds | binds
B3 | binds | binds
B4 | binds | binds
B5 | binds | binds
B6 | binds | binds
B7 | binds | binds
B8 | binds | binds
B9 | binds | binds
B10 | binds | binds
B11 | binds | binds
B12 | binds | binds
B13 | binds | binds
B14 | binds | binds
